# Measurements: patent publication US20040038299A1 (Pfizer, published 2004)
# B1: Δ76 deletion mutant of Smac with a C-terminal HA-tag (other)
# chain: RAVSLVTDSTSTFLSQTTYALIEAITEYTKAVYTLTSLYRQYTSLLGKMNSEEEDEVWQVIIGARAEMTSKHQEYLKLETTWMTAVGLSEMAAEAAYQTGADQASITARNHIQLVKLQVEEVHQLSRKAETKLAEAQIEELRQKTQEEGEERAESEQEAYLRED
# notes: also called ?76Smac; ?76 Smac; not shown: C-terminal HA tag
# Target: T1, N-terminal FLAG-tagged full length LTβR (UniProt P36941 31-435)
# T1 construct: whole, on cells; Overexpressed in HEK293 cells, immunoprecipitated from lysate with M2 beads; also called Flag-tagged LTβR; pFlag-CMV2-LTβR; not shown: N-terminal FLAG tag from pFLAG-CMV2
# Assay: co-immunoprecipitation in transfected HEK293 cells, Western blot
# Procedure: For immunoprecipitation, 1×10⁸ U937 cells were treated with FLAG-LIGHT at 20 ng/ml for different time or left untreated. Cells were then harvested and lysed in 4 ml of lysis buffer (see above). Cell debris was removed by centrifugation at 14,000+ g for 10 min and resulting lysate was pre-cleared with Gamma Binding beads (Pharmacia Biotech) for 1 hour at 4° C. Then 20 µl of M2 beads were added to cell lysate and incubated at 4° C. for 3 hours. After binding, beads were washed five times with lysis buffer. Immune complexes bound to the beads were eluted with sample buffer, resolve on 4-12% SDS-PAGE gels, transferred to PVDF membrane and probed with TRAF2, TRAF3 or cIAP1 antibody. Signals were detected with HRP-conjugated secondary antibody and ECL detection kits (Amersham Pharmacia Biotech). […] The presence of Smac, LTβR, TRAF2 and cIAP1 in the immune complex were then analyzed by Western blots.
# Although two peptides from Smac in the LIGHT-LTβR complex were detected by mass spectrometry, an endogenous association was not detected using Smac antibodies (Alexis Biochemicals or Cell Signaling Technology). […] Smac was expressed as a C-terminal HA-tagged fusion protein and appeared as a doublet of 28 kDa and 23 kDa on the Western blot. […]
# T1 sequence (P36941 31-435): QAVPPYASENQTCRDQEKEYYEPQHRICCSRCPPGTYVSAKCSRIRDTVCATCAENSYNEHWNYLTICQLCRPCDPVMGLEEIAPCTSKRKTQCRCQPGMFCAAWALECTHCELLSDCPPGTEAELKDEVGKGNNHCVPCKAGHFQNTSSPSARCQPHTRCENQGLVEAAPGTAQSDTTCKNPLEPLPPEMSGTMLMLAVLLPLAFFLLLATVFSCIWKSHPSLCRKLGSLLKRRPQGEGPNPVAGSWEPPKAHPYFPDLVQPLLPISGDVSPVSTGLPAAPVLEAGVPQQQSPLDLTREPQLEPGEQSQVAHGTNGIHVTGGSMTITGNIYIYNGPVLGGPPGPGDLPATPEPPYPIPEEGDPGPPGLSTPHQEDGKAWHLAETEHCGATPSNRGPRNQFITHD
binder,measurement,value
B1,binding result,no binding
